Results as given in the Human Domainome abundance scans (Beltran et al. 2025).
± gives the uncertainty stated by the source.

B1: POU domain, class 3, transcription factor 2, residues 262 to 338; numbered along this chain, P20265 (parent)
chain: EDTPTSDDLEQFAKQFKQRRIKLGFTQADVGLALGTLYGNVFSQTTICRFEALQLSFKNMCKLKPLLNKWLEEADSS

Variants of: B1
Test: abundance fitness (aPCA) (normalised: wild type 0, dead -1); higher = more abundant; growth selection in yeast, the domain comes from the species named
Conditions: Homo sapiens

Abundance fitness, by site and new letter:
Q54: T -0.068 ± 0.054; L -0.316 ± 0.049; K 0.045 ± 0.055; W -0.436 ± 0.057; Y -0.726 ± 0.27; M -0.294 ± 0.074; E -0.03 ± 0.045; H -0.2 ± 0.063; F -0.933 ± 0.37; S -0.157 ± 0.045; G -0.23 ± 0.038; V -0.535 ± 0.06; D -0.035 ± 0.063; R -0.156 ± 0.035; N -0.113 ± 0.081
K64: A -0.06 ± 0.035
C61: K -0.056 ± 0.053; M -0.088 ± 0.037; N -0.107 ± 0.075; V -0.035 ± 0.03; F -0.274 ± 0.053; G -0.278 ± 0.027; T -0.182 ± 0.045; Y -0.252 ± 0.077; E -0.147 ± 0.037; R -0.025 ± 0.028; L -0.001 ± 0.029; P -0.779 ± 0.086; Q -0.112 ± 0.048; A -0.101 ± 0.031; D -0.291 ± 0.075; W -0.158 ± 0.03; S -0.165 ± 0.034
R49: D 0.006 ± 0.054; C -0.691 ± 0.1; E 0.026 ± 0.032; V -0.868 ± 0.073; S -0.175 ± 0.034; K 0.05 ± 0.045; F -0.694 ± 0.18; G -0.242 ± 0.027; M -0.125 ± 0.042; H -0.314 ± 0.09; Q 0.045 ± 0.04; Y -0.499 ± 0.12
M60: N -0.561 ± 0.33; G -0.543 ± 0.035; F -0.373 ± 0.13; T -0.337 ± 0.054; E -0.848 ± 0.079; C -0.386 ± 0.074; K -0.97 ± 0.18; S -0.377 ± 0.055; L -0.282 ± 0.039; H -0.367 ± 0.17; Y -0.624 ± 0.15; I -0.907 ± 0.29; D -0.961 ± 0.2; V -0.553 ± 0.043; W -0.625 ± 0.071; Q -0.546 ± 0.095; R -0.706 ± 0.047; A -0.168 ± 0.035
S56: G -0.101 ± 0.03; D -0.093 ± 0.065; M -0.81 ± 0.15; R -0.366 ± 0.034; A -0.345 ± 0.043; Q -0.385 ± 0.064; W -0.801 ± 0.081; N -0.145 ± 0.078; L -0.633 ± 0.06; I -0.662 ± 0.14; E -0.128 ± 0.043; K -0.129 ± 0.047; T -0.135 ± 0.041; C -0.303 ± 0.056; P 0.044 ± 0.047
F50: P -0.756 ± 0.085; R -0.886 ± 0.055; G -0.839 ± 0.057; W -0.749 ± 0.067; M -0.485 ± 0.063; Q -0.624 ± 0.079; I -0.675 ± 0.12; A -0.763 ± 0.065; L -0.487 ± 0.039; K -0.711 ± 0.1; T -0.682 ± 0.076; S -0.821 ± 0.075; V -0.682 ± 0.049; E -0.85 ± 0.091; Y -0.412 ± 0.1
L63: M 0.004 ± 0.045; A -0.665 ± 0.051; E -0.803 ± 0.09; K -0.749 ± 0.14; I -0.148 ± 0.073; Q -1.03 ± 0.18; R -0.794 ± 0.048; H -0.451 ± 0.11; T -0.524 ± 0.061; F -0.347 ± 0.082; V -0.263 ± 0.029; G -0.796 ± 0.041; W -0.489 ± 0.037; D -0.785 ± 0.11; S -0.668 ± 0.059; C -0.399 ± 0.05
L55: N -0.633 ± 0.16; K -0.409 ± 0.066; F -0.277 ± 0.063; D -0.369 ± 0.061; G -0.61 ± 0.031; C -0.318 ± 0.045; P -0.586 ± 0.099; I -0.364 ± 0.099; V -0.573 ± 0.039; W -0.645 ± 0.043; Y -0.285 ± 0.062; T -0.583 ± 0.069; Q -0.506 ± 0.064; A -0.567 ± 0.048; S -0.504 ± 0.045; E -0.298 ± 0.037; H -0.266 ± 0.08
E51: Y -0.999 ± 0.36; R -0.638 ± 0.049; D -0.638 ± 0.12; S -0.88 ± 0.096; Q -0.803 ± 0.12; L -1.05 ± 0.14; K -0.666 ± 0.096; N -0.886 ± 0.29; P -0.795 ± 0.11; V -0.965 ± 0.09; M -1 ± 0.21; G -0.818 ± 0.058; A -0.855 ± 0.072; I -0.503 ± 0.14
T45: P -0.261 ± 0.045; C -0.163 ± 0.047; F -0.104 ± 0.063; I -0.213 ± 0.057; S -0.013 ± 0.032; N -0.08 ± 0.064; G -0.097 ± 0.026; Y -0.338 ± 0.097; Q 0.005 ± 0.039; L -0.127 ± 0.033; R -0.005 ± 0.025; K 0.053 ± 0.038; E 0.143 ± 0.035; H -0.066 ± 0.062
K62: P -0.99 ± 0.15; T -0.059 ± 0.039; I -0.045 ± 0.077; G -0.189 ± 0.027; F -0.126 ± 0.086; E 0.006 ± 0.038; Y -0.263 ± 0.07; A -0.033 ± 0.032; H -0.156 ± 0.06; C -0.25 ± 0.053; L -0.007 ± 0.036; V -0.089 ± 0.031; D -0.045 ± 0.053; N -0.151 ± 0.068; S -0.055 ± 0.032; M 0.02 ± 0.048; W -0.172 ± 0.038
N59: M 0.049 ± 0.045; F -0.014 ± 0.086; Q -0.001 ± 0.044; I 0.092 ± 0.079; G -0.13 ± 0.029; W -0.074 ± 0.04; P -0.559 ± 0.092; C -0.042 ± 0.056; Y -0.103 ± 0.068; L 0.029 ± 0.042; D 0.105 ± 0.06; K -0.022 ± 0.039; A 0.007 ± 0.037; S -0.001 ± 0.039; T -0.051 ± 0.043; H 0.017 ± 0.065; V 0.041 ± 0.033; R 0.059 ± 0.029
K58: F -0.163 ± 0.15; V -0.113 ± 0.039; H -0.486 ± 0.26; L -0.163 ± 0.042; Q 0.024 ± 0.042; R -0.058 ± 0.031; G -0.033 ± 0.029; N 0.039 ± 0.18; D -0.088 ± 0.091; S -0.053 ± 0.051; M -0.12 ± 0.055; A -0.042 ± 0.036; W -0.235 ± 0.044; C -0.321 ± 0.096; E 0.069 ± 0.039
L53: V -0.009 ± 0.031; Q -0.034 ± 0.049; F -0.09 ± 0.061; H -0.017 ± 0.069; P -0.961 ± 0.28; Y 0.018 ± 0.07; K -0.06 ± 0.06; E -0.311 ± 0.053; T -0.138 ± 0.046; S -0.007 ± 0.038; D -0.411 ± 0.068; C 0.044 ± 0.042; A 0.016 ± 0.034; N -0.022 ± 0.11; M 0.017 ± 0.042
I47: H -0.65 ± 0.16; K -0.701 ± 0.085; P -1.02 ± 0.19; N -0.798 ± 0.23; D -0.786 ± 0.11; Q -0.723 ± 0.094; S -0.782 ± 0.081; R -0.689 ± 0.05; F -0.787 ± 0.2; G -1 ± 0.06; A -0.751 ± 0.068; C -0.763 ± 0.097; V -0.121 ± 0.027; Y -0.339 ± 0.13; M -0.58 ± 0.065; L -0.267 ± 0.039; T -0.636 ± 0.083; E -0.772 ± 0.074
C48: T -0.064 ± 0.037; A 0.086 ± 0.03; M 0.059 ± 0.043; K 0.066 ± 0.047; H -0.029 ± 0.072; F -0.2 ± 0.075; P -0.115 ± 0.044; V -0.099 ± 0.026; E 0.085 ± 0.035; N -0.071 ± 0.11; W -0.108 ± 0.036; R 0.004 ± 0.027; D 0.052 ± 0.048; S 0.029 ± 0.033; I -0.134 ± 0.061; L -0.152 ± 0.034; G 0.022 ± 0.025; Q 0.134 ± 0.046
S43: M -0.569 ± 0.071; Q -0.166 ± 0.045; Y -0.486 ± 0.12; P -0.102 ± 0.041; L -0.485 ± 0.049; R -0.206 ± 0.031; N 0.01 ± 0.054; V -0.703 ± 0.056; K -0.132 ± 0.053; W -0.5 ± 0.062
T46: Q -0.058 ± 0.045; F -0.325 ± 0.11; V -0.115 ± 0.031; M -0.185 ± 0.041; A -0.186 ± 0.03; I -0.1 ± 0.053; R -0.376 ± 0.03; G -0.643 ± 0.036; K -0.416 ± 0.059; L -0.103 ± 0.032; P -0.697 ± 0.082; D 0.064 ± 0.046; N -0.393 ± 0.1; H -0.208 ± 0.066; Y -0.547 ± 0.14; W -0.307 ± 0.039; C -0.317 ± 0.061; E -0.035 ± 0.037
Q44: R -0.066 ± 0.028; W -0.399 ± 0.042; D -0.018 ± 0.042; N -0.133 ± 0.06; T -0.018 ± 0.039; M -0.145 ± 0.042; A 0.033 ± 0.031; P 0.023 ± 0.044; G 0.019 ± 0.025; V -0.098 ± 0.03; H -0.031 ± 0.069; K -0.009 ± 0.042; S 0.008 ± 0.035; F -0.373 ± 0.11; L -0.248 ± 0.039
A52: Q 0.056 ± 0.04; V -0.615 ± 0.043; R -0.181 ± 0.029; S 0.015 ± 0.033; E 0.048 ± 0.031; N 0.008 ± 0.062; C -0.137 ± 0.065; W -0.552 ± 0.054; I -0.632 ± 0.13; Y -0.534 ± 0.17; K -0.07 ± 0.04; L -0.111 ± 0.037; H -0.213 ± 0.1; D 0.003 ± 0.051; F -0.844 ± 0.46; G -0.078 ± 0.024; M -0.091 ± 0.039; T -0.02 ± 0.036
F57: I -0.049 ± 0.063; G -0.246 ± 0.028; W -0.169 ± 0.031; Q -0.022 ± 0.042; K 0.026 ± 0.042; R 0.02 ± 0.025; V -0.033 ± 0.028; Y 0.056 ± 0.11; C -0.516 ± 0.068; P -0.063 ± 0.046; N 0.031 ± 0.063; T 0.01 ± 0.036; L -0.077 ± 0.03; E -0.071 ± 0.034; D -0.105 ± 0.066; S -0.053 ± 0.033; M -0.046 ± 0.039; H -0.015 ± 0.06
